± gives the uncertainty stated by the source.

The data set in a line: abundance fitness (aPCA) (normalised: wild type 0, dead -1); higher = more abundant; growth selection in yeast, the domain comes from the species named. The conditions noted are these: Homo sapiens.
For the substance “E3 ubiquitin-protein ligase NEDD4-like L226F, Q96PU5”, the abundance fitness was -0.079 ± 0.1.

“E3 ubiquitin-protein ligase NEDD4-like L226G, Q96PU5” yielded an abundance fitness of -0.117 ± 0.057.

With “E3 ubiquitin-protein ligase NEDD4-like L226H, Q96PU5”, the abundance fitness is -0.065 ± 0.065.

Turning to “E3 ubiquitin-protein ligase NEDD4-like L226I, Q96PU5”, the abundance fitness is -0.186 ± 0.12.

For “E3 ubiquitin-protein ligase NEDD4-like L226M, Q96PU5”, the abundance fitness came out at 0.011 ± 0.093.

In turn, “E3 ubiquitin-protein ligase NEDD4-like L226N, Q96PU5” showed an abundance fitness of 0.01 ± 0.09.

For the substance “E3 ubiquitin-protein ligase NEDD4-like L226P, Q96PU5”, the abundance fitness turned out to be 0.104 ± 0.059.

In turn, “E3 ubiquitin-protein ligase NEDD4-like L226R, Q96PU5” showed an abundance fitness of -0.007 ± 0.065.

“E3 ubiquitin-protein ligase NEDD4-like L226S, Q96PU5” yielded an abundance fitness of 0.034 ± 0.07.

“E3 ubiquitin-protein ligase NEDD4-like L226V, Q96PU5” returned an abundance fitness of -0.11 ± 0.063.

As for “E3 ubiquitin-protein ligase NEDD4-like L226W, Q96PU5”, the abundance fitness was -0.309 ± 0.069.

The substance “E3 ubiquitin-protein ligase NEDD4-like L226Y, Q96PU5” displayed an abundance fitness of -0.043 ± 0.091.

“E3 ubiquitin-protein ligase NEDD4-like M227A, Q96PU5” had an abundance fitness of -0.077 ± 0.064.

The substance “E3 ubiquitin-protein ligase NEDD4-like M227C, Q96PU5” had an abundance fitness of -0.05 ± 0.059.

On to “E3 ubiquitin-protein ligase NEDD4-like M227D, Q96PU5”, for which the abundance fitness came out at 0.065 ± 0.12.

“E3 ubiquitin-protein ligase NEDD4-like M227G, Q96PU5” yielded an abundance fitness of -0.039 ± 0.064.

In the case of “E3 ubiquitin-protein ligase NEDD4-like M227H, Q96PU5”, the abundance fitness is 0.092 ± 0.077.

For the substance “E3 ubiquitin-protein ligase NEDD4-like M227I, Q96PU5”, the abundance fitness was -0.135 ± 0.073.

The substance “E3 ubiquitin-protein ligase NEDD4-like M227K, Q96PU5” registered an abundance fitness of -0.015 ± 0.093.

“E3 ubiquitin-protein ligase NEDD4-like M227L, Q96PU5” had an abundance fitness of -0.027 ± 0.067.

For “E3 ubiquitin-protein ligase NEDD4-like M227N, Q96PU5”, the abundance fitness is -0.024 ± 0.099.

On to “E3 ubiquitin-protein ligase NEDD4-like M227P, Q96PU5”, for which the abundance fitness came to 0.145 ± 0.09.

As to “E3 ubiquitin-protein ligase NEDD4-like M227Q, Q96PU5”, the abundance fitness is -0.068 ± 0.1.

“E3 ubiquitin-protein ligase NEDD4-like M227R, Q96PU5” registered an abundance fitness of 0.001 ± 0.054.

For the substance “E3 ubiquitin-protein ligase NEDD4-like M227S, Q96PU5”, the abundance fitness was determined as 0.055 ± 0.063.

“E3 ubiquitin-protein ligase NEDD4-like M227T, Q96PU5”: the abundance fitness was -0.022 ± 0.089.

Take “E3 ubiquitin-protein ligase NEDD4-like M227V, Q96PU5”: the abundance fitness was -0.285 ± 0.068.

On to “E3 ubiquitin-protein ligase NEDD4-like M227W, Q96PU5”, for which the abundance fitness is -0.313 ± 0.07.

In the case of “E3 ubiquitin-protein ligase NEDD4-like M227Y, Q96PU5”, the abundance fitness was -0.184 ± 0.082.

“E3 ubiquitin-protein ligase NEDD4-like N205A, Q96PU5” returned an abundance fitness of -0.057 ± 0.06.

Substance “E3 ubiquitin-protein ligase NEDD4-like N205C, Q96PU5” registered an abundance fitness of -0.142 ± 0.059.

Consider “E3 ubiquitin-protein ligase NEDD4-like N205D, Q96PU5”, for which the abundance fitness was -0.085 ± 0.07.

In the case of “E3 ubiquitin-protein ligase NEDD4-like N205E, Q96PU5”, the abundance fitness was -0.105 ± 0.05.

As to “E3 ubiquitin-protein ligase NEDD4-like N205F, Q96PU5”, the abundance fitness was -0.544 ± 0.11.

“E3 ubiquitin-protein ligase NEDD4-like N205G, Q96PU5” registered an abundance fitness of -0.321 ± 0.054.

Substance “E3 ubiquitin-protein ligase NEDD4-like N205H, Q96PU5” displayed an abundance fitness of -0.062 ± 0.11.

Consider “E3 ubiquitin-protein ligase NEDD4-like N205I, Q96PU5”, for which the abundance fitness is -0.111 ± 0.098.

“E3 ubiquitin-protein ligase NEDD4-like N205K, Q96PU5” had an abundance fitness of 0.033 ± 0.097.

With “E3 ubiquitin-protein ligase NEDD4-like N205L, Q96PU5”, the abundance fitness was -0.196 ± 0.07.

Substance “E3 ubiquitin-protein ligase NEDD4-like N205M, Q96PU5” gave an abundance fitness of -0.109 ± 0.055.

Consider “E3 ubiquitin-protein ligase NEDD4-like N205P, Q96PU5”, for which the abundance fitness was -0.012 ± 0.093.

“E3 ubiquitin-protein ligase NEDD4-like N205Q, Q96PU5” gave an abundance fitness of -0.087 ± 0.069.

For the substance “E3 ubiquitin-protein ligase NEDD4-like N205R, Q96PU5”, the abundance fitness is -0.013 ± 0.054.

On to “E3 ubiquitin-protein ligase NEDD4-like N205T, Q96PU5”, for which the abundance fitness was 0.029 ± 0.092.

Turning to “E3 ubiquitin-protein ligase NEDD4-like N205V, Q96PU5”, the abundance fitness is -0.232 ± 0.068.

“E3 ubiquitin-protein ligase NEDD4-like N205Y, Q96PU5” yielded an abundance fitness of 0.049 ± 0.094.

With “E3 ubiquitin-protein ligase NEDD4-like N213A, Q96PU5”, the abundance fitness is -0.382 ± 0.071.

Substance “E3 ubiquitin-protein ligase NEDD4-like N213C, Q96PU5” yielded an abundance fitness of -0.042 ± 0.14.

Consider “E3 ubiquitin-protein ligase NEDD4-like N213D, Q96PU5”, for which the abundance fitness was -0.206 ± 0.075.

In turn, “E3 ubiquitin-protein ligase NEDD4-like N213E, Q96PU5” displayed an abundance fitness of -0.404 ± 0.11.

With “E3 ubiquitin-protein ligase NEDD4-like N213F, Q96PU5”, the abundance fitness is -0.507 ± 0.11.

“E3 ubiquitin-protein ligase NEDD4-like N213G, Q96PU5” had an abundance fitness of -0.326 ± 0.084.

“E3 ubiquitin-protein ligase NEDD4-like N213K, Q96PU5” had an abundance fitness of -0.752 ± 0.18.

“E3 ubiquitin-protein ligase NEDD4-like N213L, Q96PU5” yielded an abundance fitness of -0.709 ± 0.1.

Take “E3 ubiquitin-protein ligase NEDD4-like N213M, Q96PU5”: the abundance fitness is -0.441 ± 0.11.

As for “E3 ubiquitin-protein ligase NEDD4-like N213P, Q96PU5”, the abundance fitness is -0.383 ± 0.24.

“E3 ubiquitin-protein ligase NEDD4-like N213Q, Q96PU5” registered an abundance fitness of -0.295 ± 0.089.

In turn, “E3 ubiquitin-protein ligase NEDD4-like N213R, Q96PU5” came in with an abundance fitness of -0.56 ± 0.069.

As for “E3 ubiquitin-protein ligase NEDD4-like N213S, Q96PU5”, the abundance fitness stood at 0.213 ± 0.12.

Substance “E3 ubiquitin-protein ligase NEDD4-like N213T, Q96PU5” had an abundance fitness of -0.428 ± 0.1.

Take “E3 ubiquitin-protein ligase NEDD4-like N213V, Q96PU5”: the abundance fitness is -0.88 ± 0.13.

“E3 ubiquitin-protein ligase NEDD4-like N213W, Q96PU5” yielded an abundance fitness of -0.753 ± 0.1.

“E3 ubiquitin-protein ligase NEDD4-like N213Y, Q96PU5”: the abundance fitness was -0.349 ± 0.39.

“E3 ubiquitin-protein ligase NEDD4-like N215A, Q96PU5”: the abundance fitness was -0.029 ± 0.072.

In turn, “E3 ubiquitin-protein ligase NEDD4-like N215C, Q96PU5” returned an abundance fitness of -0.178 ± 0.084.

For the substance “E3 ubiquitin-protein ligase NEDD4-like N215D, Q96PU5”, the abundance fitness was 0.015 ± 0.086.

“E3 ubiquitin-protein ligase NEDD4-like N215E, Q96PU5”: the abundance fitness is -0.086 ± 0.077.

In the case of “E3 ubiquitin-protein ligase NEDD4-like N215F, Q96PU5”, the abundance fitness is -0.169 ± 0.1.

“E3 ubiquitin-protein ligase NEDD4-like N215G, Q96PU5” registered an abundance fitness of -0.036 ± 0.05.

Consider “E3 ubiquitin-protein ligase NEDD4-like N215H, Q96PU5”, for which the abundance fitness was -0.031 ± 0.1.

Substance “E3 ubiquitin-protein ligase NEDD4-like N215I, Q96PU5” displayed an abundance fitness of -0.077 ± 0.084.

Substance “E3 ubiquitin-protein ligase NEDD4-like N215K, Q96PU5” showed an abundance fitness of 0.165 ± 0.098.

“E3 ubiquitin-protein ligase NEDD4-like N215L, Q96PU5” came in with an abundance fitness of -0.205 ± 0.07.

In turn, “E3 ubiquitin-protein ligase NEDD4-like N215M, Q96PU5” yielded an abundance fitness of -0.077 ± 0.062.

Substance “E3 ubiquitin-protein ligase NEDD4-like N215P, Q96PU5” had an abundance fitness of -0.171 ± 0.074.

“E3 ubiquitin-protein ligase NEDD4-like N215Q, Q96PU5” gave an abundance fitness of -0.081 ± 0.091.

“E3 ubiquitin-protein ligase NEDD4-like N215R, Q96PU5” registered an abundance fitness of -0.193 ± 0.063.

“E3 ubiquitin-protein ligase NEDD4-like N215S, Q96PU5”: the abundance fitness was -0.013 ± 0.07.

“E3 ubiquitin-protein ligase NEDD4-like N215T, Q96PU5”: the abundance fitness is -0.118 ± 0.095.

“E3 ubiquitin-protein ligase NEDD4-like N215V, Q96PU5” yielded an abundance fitness of -0.263 ± 0.071.

In turn, “E3 ubiquitin-protein ligase NEDD4-like N215W, Q96PU5” had an abundance fitness of -0.293 ± 0.069.

On to “E3 ubiquitin-protein ligase NEDD4-like N215Y, Q96PU5”, for which the abundance fitness was -0.173 ± 0.1.

On to “E3 ubiquitin-protein ligase NEDD4-like N216A, Q96PU5”, for which the abundance fitness is 0.016 ± 0.056.

In turn, “E3 ubiquitin-protein ligase NEDD4-like N216C, Q96PU5” gave an abundance fitness of -0.09 ± 0.098.

The values above are taken from the Human Domainome abundance scans (Beltran et al. 2025).
